The source of these data is the RNAGym collection of RNA variant scans (doi:10.1021/acssynbio.7b00057).

First the molecules themselves.
B1: Pistol ribozyme (parent)
chain: GGGUCGUUGUUCCAUAAUCGCGUGGAUAUGGCACGCAAGUUUCUACCGGGCACCGUAAAUGUCCGACUGGAGCCGUUCGGGCGGCUAUAAACAGACCUCAGGCCCGAAGCGUGGCGGCACCUGCCGCCGGUGGUAAAAAAGAUCGGAAGAGCACACGUCU

This data set covers variants of B1. Kind of data set: aptazyme ON/OFF ratio, guanine; higher = stronger switching; co-transcriptional cleavage with and without guanine.
Consider U8A G9U U10A U11G C12U C13A, for which the “aptazyme ON/OFF ratio” value worked out at 1.27. With U8A G9U U10A U11G C12U C13G, the “aptazyme ON/OFF ratio” value stood at 1.17. With U8A G9U U10A U11G C12U C13U, the “aptazyme ON/OFF ratio” value was 1.4. In the case of U8A G9U U10A U11G C13G it was 1.08; in that of U8A G9U U10A U11G C13A, 1.23; in that of U8A G9U U10A U11G C13U, 1.25. In the case of U8A G9U U11A C13G it was 1.13. In the case of U8A G9U U11A C13A it was 1.1; in that of U8A G9U U11A C13U, 1.24; in that of U8A G9U C12A C13U, 1.15. U8A G9U C12A C13A: the “aptazyme ON/OFF ratio” value came out at 1.52. With U8A G9U C12A C13G, the “aptazyme ON/OFF ratio” value stood at 1.16. The result for U8A G9U U11A C12U C13G reads 1.09. In the case of U8A G9U U11A C12U C13A it was 1.52; in that of U8A G9U U11A C12U C13U, 1.08. The result for U8A G9U U10A C13U reads 1.2; that for U8A G9U U10A C13G, 1.1; that for U8A G9U U10A C13A, 1.26.

For U8A G9U U10A U11G C12A, the “aptazyme ON/OFF ratio” value came out at 1.07. The result for U8A G9U U10A U11G C12G reads 1.24. Turning to U8A G9U U10A U11G C12U, the “aptazyme ON/OFF ratio” value was 1.37.

In the case of U8A G9U U11A C12A C13U, the “aptazyme ON/OFF ratio” value came out at 1.38.

For U8A G9U U11A C12A C13A, the “aptazyme ON/OFF ratio” value came to 1.22. U8A G9U U11A C12A C13G: the “aptazyme ON/OFF ratio” value was found to be 1.18. In the case of U8A G9U U10A C12G it was 1.31; in that of U8A G9U U10A C12U, 1.4. With U8A G9U U10A C12A, the “aptazyme ON/OFF ratio” value came out at 1.34. The result for U8A G9U U10A C12A C13G reads 1.12; that for U8A G9U U10A C12A C13A, 1.22; that for U8A G9U U10A C12A C13U, 1.36. In the case of U8A U10A C12U C13G it was 1.13; in that of U8A U10A C12U C13A, 1.21; in that of U8A U10A C12U C13U, 1.25.

For the variant U8A G9U U11G C12G, the “aptazyme ON/OFF ratio” value stood at 1.12. The result for U8A G9U U11G C12U reads 1.51; that for U8A G9U U11G C12A, 1.07. The result for U8A G9U U10G U11C C12U C13A reads 1.04.

Consider U8A G9U U10G U11C C12U C13G, for which the “aptazyme ON/OFF ratio” value came out at 1.05. In the case of U8A G9U U10G U11C C12U C13U it was 1.08. In the case of U8A G9U U10C U11A C12U C13A it was 1.26; in that of U8A G9U U10C U11A C12U C13U, 1.15. In the case of U8A G9U U10C U11A C12U C13G, the “aptazyme ON/OFF ratio” value was determined as 1.1. For the variant U8A U10A U11C C12G C13A, the “aptazyme ON/OFF ratio” value amounted to 1.1. In the case of U8A U10A U11C C12G C13U it was 1.16.

For the variant U8A U10A U11C C12G C13G, the “aptazyme ON/OFF ratio” value came out at 1.27. The result for U8A G9U U10G U11G C12U C13U reads 1.35. In the case of U8A G9U U10G U11G C12U C13A it was 1.32. In the case of U8A G9U U10G U11G C12U C13G it was 1.21; in that of U8A G9U U10G U11G, 1.09; in that of U8A G9U U10G U11C, 1.06. In the case of U8A G9U U10G U11A, the “aptazyme ON/OFF ratio” value amounted to 1.07.

As for U8A U10A U11G C12G, the “aptazyme ON/OFF ratio” value is 1.36. The result for U8A U10A U11G C12U reads 1.52; that for U8A U10A U11G C12A, 1.12. In the case of U8A G9C U11G C12G C13A it was 1.18. The result for U8A G9C U11G C12G C13U reads 1.07. With U8A G9C U11G C12G C13G, the “aptazyme ON/OFF ratio” value is 1.14. Regarding U8A G9U U10C C12G C13U, the “aptazyme ON/OFF ratio” value was 1.25. The result for U8A G9U U10C C12G C13A reads 1.15; that for U8A G9U U10C C12G C13G, 1.18; that for U8A U10A U11G C12G C13U, 1.27.

For U8A U10A U11G C12G C13A, the “aptazyme ON/OFF ratio” value came to 1.06.

On to U8A U10A U11G C12G C13G, for which the “aptazyme ON/OFF ratio” value was 1.15. The result for U8A G9U U10C U11C C12U reads 1.04; that for U8A G9U U10C U11C C12G, 1.03; that for U8A G9U U10C U11C C12A, 1.01. In the case of U8A G9U U10A U11C C13U it was 1.02; in that of U8A G9U U10A U11C C13A, 1.04; in that of U8A G9U U10A U11C C13G, 1.08. The result for U8A G9C U11G C12G reads 1.16; that for U8A G9C U11G C12U, 1.45; that for U8A G9C U11G C12A, 1.06. For U8A G9U U10G U11A C12A C13U, the “aptazyme ON/OFF ratio” value was found to be 1.47. The result for U8A G9U U10G U11A C12A C13G reads 1.16; that for U8A G9U U10G U11A C12A C13A, 1.22; that for U8A G9U U10A U11A C12A C13U, 1.24.

In the case of U8A G9U U10A U11A C12A C13A, the “aptazyme ON/OFF ratio” value was 1.16.

As for U8A G9U U10A U11A C12A C13G, the “aptazyme ON/OFF ratio” value was 1.23. The result for U8A U10A C12G C13A reads 1.15.

Turning to U8A U10A C12G C13U, the “aptazyme ON/OFF ratio” value turned out to be 1.37. The result for U8A U10A C12G C13G reads 1.19. With U8A G9U U10A U11G C12A C13A, the “aptazyme ON/OFF ratio” value came to 1.01. In the case of U8A G9U U10A U11G C12A C13U it was 1.21. The result for U8A G9U U10A U11G C12A C13G reads 1.19.
